# Experimental data from WO2005003174A1 (dated 2005).
# B1: F(ab')2 fragment of the anti-PsaA Ab 5-9A7 (antibody, V domains shown)
# VH: EVQLVESGGGLVQPGGSLRLSCAASGFTFSSFWMSWVRQAPGKGLEWVANIKQDGSEKFYVDSVKGRFTISRDNAKNSLYLQMNSLRAEDTAVYYCARDRITMVRPYYYFYNGLDVWGQGTTVTVSS
# VL: EIVLTQSPATLSLSPGERATLSCRASQSVSSYLAWYQQKPGQAPRLLIYDASNRATGIPARFSGSGSGTDFTLTISSLEPEDFAVYYCQQRSNWPPFTFGPGTKVDIK
# notes: F(ab')2 fragment made by pepsin digestion of the human antibody 5-9A7; also called anti-PsaA F(ab')2
# Target: T1, fusion protein consisting of soluble CD64 linked to the Fc portion of human IgM (human, UniProt P12314 16-292; P01871 106-453, limits assumed)
# T1 construct: domain: soluble CD64;domain: Fc portion; Used as a supernatant and detected with alkaline phosphatase labelled goat anti-human IgM; also called soluble CD64-IgM fusion protein
# T1 sequence (P12314 other isoform, or with tags, fused parts or gaps limits assumed): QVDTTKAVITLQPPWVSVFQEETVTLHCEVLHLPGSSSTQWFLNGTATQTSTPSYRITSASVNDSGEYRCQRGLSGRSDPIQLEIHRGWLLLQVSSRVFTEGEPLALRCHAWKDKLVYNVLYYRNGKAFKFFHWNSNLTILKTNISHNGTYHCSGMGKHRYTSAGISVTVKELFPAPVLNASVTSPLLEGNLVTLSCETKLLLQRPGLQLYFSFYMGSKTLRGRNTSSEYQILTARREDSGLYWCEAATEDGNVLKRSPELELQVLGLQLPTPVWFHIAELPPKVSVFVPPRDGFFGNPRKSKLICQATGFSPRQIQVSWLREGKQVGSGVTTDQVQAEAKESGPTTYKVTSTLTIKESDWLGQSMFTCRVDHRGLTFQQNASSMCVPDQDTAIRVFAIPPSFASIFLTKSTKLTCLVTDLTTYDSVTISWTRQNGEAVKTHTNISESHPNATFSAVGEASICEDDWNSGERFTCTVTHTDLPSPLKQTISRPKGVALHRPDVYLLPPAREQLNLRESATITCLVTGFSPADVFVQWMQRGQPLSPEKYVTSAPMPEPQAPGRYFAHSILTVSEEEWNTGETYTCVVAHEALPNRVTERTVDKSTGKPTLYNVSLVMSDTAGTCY
# Experiment: bispecific ELISA: PsaA coated, detection with soluble CD64-IgM fusion and anti-human IgM
binder,measurement,value
B1,binding result,no binding
